Measurements as given in the DeepSol protein solubility set.

Assay: soluble on expression in E. coli; label from the status in PepcDB or PDB records

Row | Sequence | soluble on expression in E. coli
1 | MGHHHHHHSHEHCAIILEDDRSDISSTCANNINHNTELLPIELDTLVGKGRFAEVYKAKLKQNTSEQFETVAVKIFPYEEYASWKTEKDIFSDINLKHENILQFLTAEERKTELGKQYWLITAFHAKGNLQEYLTRHVISWEDLRKLGSSLARGIAHLHSDHTPCGRPKMPIVHRDLKSSNILVKNDLTCCLCDFGLSLRLDPTLSVDDLANSGQVGTARYMAPEVLESRMNLENAESFKQTDVYSMALVLWEMTSRCNAVGEVKDYEPPFGSKVREHPCVESMKDNVLRDRGRPEIPSFWLNHQGIQMVCETLTECWDHDPEARLTAQCVAERFSELEHLDRLSGRSCSEEKIPEDGSLNTTK | not soluble
2 | MGSDKIHHHHHHMTLPISVFIITKNEEKHIAKTLASVKDMDEVILVDSGSTDKTLSIAQQFGATIFSHEWQGYAKQKQYAMSLCRNEWVLNLDGDEAINPQLIAAFKEIIEQDKADSVRFWRNDIFIGKPLSSLSKKPNNHRLYKKSKSFFDDSRLAHESATVDGKEIFINQVFDHYGYDSIAAITNKNNTYSTLKADEKFVKGKSFSHLKLFLIFPLVFIKEYLLQRKLFSGRRGFILAVMEAYYAFLKEAKLFENHQNKPN | not soluble
3 | MFTATEAVPVAKVVAGNKRYPGVVALDNVNFTLNKGEVRALLGKNGAGKSTLIRMLTGSERPDSGDIWIGETRLEGDEATLTRRAAELGVRAVYQELSLVEGLTVAENLCLGQWPRRNGMIDYLQMAQDAQRCLQALGVDVSPEQLVSTLSPAQKQLVEIARVMKGEPRVVILDEPTSSLASAEVELVISAVKKMSALGVAVIYVSHRMEEIRRIASCATVMRDGQVAGDVMLENTSTHHIVSLMLGRDHVDIAPVAPQEIVDQAVLEVRALRHKPKLEDISFTLRRGEVLGIAGLLGAGRSELLKAIVGLEEYEQGEIVINGEKITRPDYGDMLKRGIGYTPENRKEAGIIPWLGVDENTVLTNRQKISANGVLQWSTIRRLTEEVMQRMTVKAASSETPIGTLSGGNQQKVVIGRWVYAASQILLLDEPTRGVDIEAKQQIYRIVRELAAEGKSVVFISSEVEELPLVCDRILLLQHGTFSQEFHAPVNVDELMSAILSVH | soluble
4 | MSEQYVYQHGTLGGLMESLMAGTAEIGTLLTQGDFGIGTLEGSNGEIILLDGTLYHANQTGEITILEGEELTPYAAVTRFQEDGAFPVSTETDENIKAQILEKISPNFFAAIKISGLFAKMHVRVAPKQEKPYPPFVEAARNQPEFTAENIQGTVVGFFTPKLFHGASAAGFHLHFISEDHQFGGHILDFGIKQGTVSWMETAELRQHFPVHDADYRNKEIDIAKALSAIEEAE | not soluble
5 | MISLPIDAVVPALRQALGAQHQAVLEAPPGAGKTTRVPLALLDEPWLAGQRILMLEPRRLAARAAAERLAAELGEKVGETVGYRIRLESRVGPKTRIEVVTEGILARRLQDDPALDGVGLVIFDEFHERSLDADLALALTLNGRELLRDEPPLKVLVMSATLEGERLAALLGEAPVVRSEGRMFPVDIRWGRPAQPGEFIEPRVQQAVLQALAEESGSVLVFLPGQAEIRRVHEGLREALGGRPEVLLCPLHGELDLAAQRAAIEPASRGTRKVVLATNIAETSLTIDGVRVVIDAGLARVPRFDPGSGMTRLETQRISRASATQRAGRAGRLEPGVCYRLWSESQHEQLPAYGTAEILQADLAGLALQLARWGVAPEELAWLDAPPAAAYAQARELLGRLGALNASGALSAHGQAMAELPTHPRIAHLLLRGQALGLGELACDVAALLGERDIQRGGGADLHSRLALLAGEARTGASRGAVQRARQLARQFRGYLRGAASEAVVDPGHPRWLGCLLAFAYPDRIARQRRAGGGDYRLANGRAAQFGEPDSLMKQPWLVIADLGSRQGQREERIYLAAELDPRLFDTVLAEQVSQRDELQWDEREGVLRAERQRRVGELVLSSEALPGLDEAARSQALLGLVRRKGLELLPWTPELRQWQARIGLLRRLDLEDKGESEWPDVSDAALLERLEEWLPAYLGKVTRLAHFANLDLASILAGLLPWPLPQRLDEWAPKTLEVPSGSRIRLDYSETPPILAVRLQELFGLGDTPRIAQGRLAVKLHLLSPAHRPVQVTQDLANFWRSTYAEVRKDLKGRYPKHYWPDDPLVAEATARAKPR | not soluble
6 | MANKGIVPVKISLTEGDFYTLWAPQWREHGAEWQAFLGSGDDLYVFESPAAVLAYIESGARHDLSDHPKWGAFMAGADDRVVPTDRQEYDLIGVPALLAERPSHTNVSAVARCFAITRSLGDVTATIPVQSFFSSHSILMNTERGGNHFTGDSGLGEWTGIGRIVLTSWNNVIDALDSAITVHTDGNAEAISAAAARIDAATAEAEQRRIAEEKKKKADAEKVDPYDATPWAAAGIDPIKISIDGRTVYTLRTYIEAQPVFLGKYGEIFTFNSGKSLVRWLVEHDDHDLARVSTWEDLMVPVNAGELDITVHPDNVYSFNGLTRDINTSVEAVDTAQMARAYELLADAADWAADDSLNSYFLTNPRMQDYISYMIGSTRVSGYTPTPPFTEHSESWAEMEKMLTKRFSKF | not soluble
7 | MSLEFANFDSDLQYFLFQHIAVLLTANTKYRRALLLYGGAKNGKSVFINLVRSFFYSEDIVSKALNELQGRFDKESLVGKKLMASDEIGESRIQEKIVNDLKKLVSVEPVHVDRKGKTQVETTLDLKLAFGTNARLNFPSAHAKALERRIAVIPCEYYVEKADPDLIEKLQDEKKEIFLYLMYVYKQIVKNDIEYLQNDRVTEISHDWLNFGYEFVSSKSASIANQKACINLLRKLIEIKPGSRIKVSELNKVINEEIKVSSQVIKQLIQANFDTQTKLYNGYDYWIDLGWKEADKKEIHDISKKDNIISLDKNENITDDETLDEENLDFDWEDFDDEGHHHHHH | not soluble
8 | AWVDQTPRTATKETGESLTINCVLRDASYGLESTGWYRTKLGSTNEQTISIGGRYVETVNKGSKSFSLRIRDLRVEDSGTYKCGAFRFWLPYGYGSLPLSEKGAGTVLTVK | soluble
9 | NIKNILSERVSAAMVAAGLPEGTNPAISLSNRPQFGDYQANGVMGAAKKLKTNPRELATKVVAELDLDGIASKIELAGPGFINIHLDESWLAAQLNEVAQDDFIGVAQRGTT | not soluble
10 | MNIIGLDISKDTIDATLHKTNGSIHYIKFKNNDDGLKQFRLWIKGNRIRKVYIGMEATGIYYEKAADMLSSYYTVYVINPLKIKDYGKSRFNRTKTDKADSNLIADYIKRHQDTLIPYQIPKNKALQKLINLKNQLHQHQKQIKNRLHSTEEDFIRNIHQDLIDTIQDKMEQVKIAISEQIKKQTDNNHYRNLQTIPSIGKDTASVLYAQLTEKHFKTANQFVSYAGLNPAIIQSGTSVRGRGRLSRYGNRRLKSTLYMPALCAYRFNAFPKLINNLKKAGKPKMVIIVAIMRKLAKLAYYIVKTGQPYDAERHRLNQ | not soluble
11 | MYEYCRKRGLYPDAESYPWKSNAHYWLVTNLYQNMRANALADAELRRKAADELTCMTARINRGETIPEPVKQLPVMGGRPLNRAQALAKIAEIKAKFGLKGASVLEHHHHHH | not soluble
12 | MSLGKYFGTDGVRGVANSELTPELAFRLGRMGGYVLTRHVGEHPRVLVARDTRISGEMLESALIAGLVSVGIEVMRLGVISTPGVAYLTKAQGASASVMISASHNPVDDNGIKFFGSDGFKLSDDQEEEIEQLLDTAEDTLPRPSGEGLGTVSDYFEGKQKYIQYLKQTIENDFNGYHIALDCANGATSGLATHLFADLDADISSMGASPNGLNINDGVGSTHPEALAAFVLDKKADVGLAFDGDGDRVIAIDEIGQIVDGDKIMFICAKYLREQGLLNNNTIVSTVMSNLGFYKGLKELEIEDVQTAVGDRYVVEAMREGNYNLGGEQSGHIIFLDHNTTGDGLLSGIQLINVMKATGKKLSELAAEMKTFPQKLENIRVSDKNHVTDNPKVSKVIGEVEAEMAGNGRVLVRPSGTEPLVRVMVEAATKEETDEYCERISAVVRSEMALNDEGHHHHHH | soluble
13 | MDEFEMIKRNTSEIISEEELREVLKKDEKSAIIGFEPSGKIHLGHYLQIKKMIDLQNAGFDIIILLADLFAYLNQKGELDEIRKIGDYNKKVFEAMGLKAKYVYGSSFMLDKDYTLNVYRLALKTTLKRARRSMELIAREDENPKVAEVIYPIMQVNPLHYEGVDVAVGGMEQRKIHMLARELLPKKVVCIHNPVLTGLDGEGKMSSSKGNFIAVDDSPEEIRAKIKKAYCPAGVVEGNPIMEIAKYFLEYPLTIKRPEKFGGDLTVNSYEELESLFKNKELHPMDLKNAVAEELIKILEPIRKRLLEHHHHHH | soluble
14 | MHLLPELASHHAVSIPELLVSRDERQARQHVWLKRHPVPLVSFTVVAPGPIKDSEVTRRIFNHGVTALRALAAKQGWQIQEQAALVSASGPEGMLSIAAPARDLKLATIELEHSHPLGRLWDIDVLTPEGEILSRRDYSLPPRRCLLCEQSAAVCARGKTHQLTDLLNRMEALLNDVDACNVN | not soluble
15 | MGSDKIHHHHHHMDTRIRDFVKTNECYFAVNTYYHPENSVISFLRYINIDKIGNHLLKDYELDENDIRILNGERFIKVADSSKAYAILKEYYPEYLFYDEINDVLLHAVPKTNIKEILSPQKRLEEVLNEQNTEAEIKCAKLADTLHDYGLEYKNMGVSGSTVLKLNNENSDIDFVIYGMEKHKIAREILSVTFKDGVLEPLSEDFWKKAYVKRIKDGTLTYDEFVWHEKRKLNRGVVDGVMFDLLATREWDEITENYGDKKYKNLGFIQIKAKVKDDTFVFDNPAVYKVENVEILNNENNAEVLASEIEEVVSFTHTYAGSTYNGEEIIVRGKLEEVSGKETYKRVVVGTTREAFNEYVKLAK | not soluble
16 | MMKKMAIACALLSSVVASSVWADAASSLKSRLDKVSSFHATFTQKVTDGSGAAVQEGQGDLWVKRPNLFNWHMTQPDESILVSDGKTLWFYNPFVEQATATWLKDATGNTPFMLIARNQASDWQQYNIKQDGDNFVLTPKASNGNLKQFTINVGRDGTIHQFSAVEQDDQRSAYQLKSQQNGAVDPSKFTFTPPQGVTIDDQRK | not soluble
17 | MDYRFGRQYRLLKTDDFSSVFAFRNRRSRDLLQVSRSNGNGLGHPRIGLVVGKKTAKRANERNYMKRVIRDWFRLNKNRLPPQDFVVRVHRKFDRATAKQARAELAQLMFGNPATGCRKQA | not soluble
18 | MPSTLSEELVGKYLAAQYQVWIDTSVVTLQIGCQSAPLAALLQATGNRSAVYVTACNPASEVATSQENQSAMARLYERLACYSNHIYRGTGIDPSGEWPAEESLLALGIDLSIAKKIGDEFGQNAIVWIDSAAIPHLVLLC | not soluble
19 | MGSDKIHHHHHHMSLDRVDWPHATFSTPVKRIFDTQTTLDFQSSLAIHRIKYHLHKYTTLISHCSDPDPHATASSIAMVNGLMGVLDKLAHLIDETPPLPGPRRYGNLACREWHHKLDERLPQWLQEMLPSEYHEVVPELQYYLGNSFGSSTRLDYGTGHELSFMATVAALDMLGMFPHMRGADVFLLFNKYYTIMRRLILTYTLEPAGSHGVWGLDDHFHLVYILGSSQWQLLDAQAPLQPREILDKSLVREYKDTNFYCQGINFINEVKMGPFEEHSPILYDIAVTVPRWSKVCKGLLKMYSVEVLKKFPVVQHFWFGTGFFPWVNIQNGTDLPVFEEKEEESIEQANAGSPGREQTSTRFPTSTSMPPPGVPPSGNNINYLLSHQNQSHRNQTSFSRDRLRR | not soluble
